{"source": "patent US20250123292", "proteins": {"B1": {"name": "Recombinant Human BMP-1/PCP (R&Dsystems, catalog Number: 1927-ZN) (protein)", "chain": "AATSRPERVWPDGVIPFVIGGNFTGSQRAVFRQAMRHWEKHTCVTFLERTDEDSYIVFTYRPCGCCSYVGRRGGGPQAISIGKNCDKFGIVVHELGHVVGFWHEHTRPDRDRHVSIVRENIQPGQEYNFLKMEPQEVESLGETYDFDSIMHYARNTFSRGIFLDTIVPKYEVNGVKPPIGQRTRLSKGDIAQARKLYKCPACGETLQDSTGNFSSPEYPNGYSAHMHCVWRISVTPGEKIILNFTSLDLYRSRLCWYDYVEVRDGFWRKAPLRGRFCGSKLPEPIVSTDSRLWVEFRSSSNWVGKGFFAVYEAICGGDVKKDYGHIQSPNYPDDYRPSKVCIWRIQVSEGFHVGLTFQSFEIERHDSCAYDYLEVRDGHSESSTLIGRYCGYEKPDDIKSTSSRLWLKFVSDGSINKAGFAVNFFKEVDECSRPNRGGCEQRCLNTLGSYKCSCDPGYELAPDKRRCEAACGGFLTKLNGSITSPGWPKEYPPNKNCIWQLVAPTQYRISLQFDFFETEGNDVCKYDFVEVRSGLTADSKLHGKFCGSEKPEVITSQYNNMRVEFKSDNTVSKKGFKAHFFSEKRPALQPPRGRPHQLKFRVQKRNRTPQ"}}, "target": "recombinant human endorepellin/perlecan (R&Dsystems, catalog Number: 2364-ER-050), intact, P98160", "data": [{"protein": "B1", "values": [{"measurement": "measured levels of LG3 (LG3 ELISA) after in vitro cleavage, 24 hours at 37 C", "value": "LG3 was detected only in the endorepellin with BMP-1 sample"}]}]}
